B1: D15C: cysteine variant of P54AR4-83v2 (SEQ ID NOS: 193 and 231); NEM and VC-MMAF conjugates (conjugate)
chain: MLPAPKNLVVSEVTECSARLSWDDPWAFYESFLIQYQESEKVGEAIVLTVPGSERSYDLTGLKPGTEYTVSIYGVHNVYKDTNMRGLPLSAIFTT
modifications: NEM or vcMMAF conjugate; EGFR binding FN3 domain
notes: NEM and VC-MMAF conjugates
B2: G60C: cysteine variant of P54AR4-83v2 (SEQ ID NOS: 207 and 245); NEM and VC-MMAF conjugates (conjugate)
chain: B1 chain with C16D, G61C
modifications: NEM or vcMMAF conjugate; EGFR binding FN3 domain
notes: NEM and VC-MMAF conjugates
B3: V41C: cysteine variant of P54AR4-83v2 (SEQ ID NOS: 200 and 238); NEM and VC-MMAF conjugates (conjugate)
chain: B1 chain with C16D, V42C
modifications: NEM or vcMMAF conjugate; EGFR binding FN3 domain
notes: NEM and VC-MMAF conjugates
B4: L47C: cysteine variant of P54AR4-83v2 (SEQ ID NOS: 202 and 240); NEM and VC-MMAF conjugates (conjugate)
chain: B1 chain with C16D, L48C
modifications: NEM or vcMMAF conjugate; EGFR binding FN3 domain
notes: NEM and VC-MMAF conjugates
B5: S38C: cysteine variant of P54AR4-83v2 (SEQ ID NOS: 198 and 236); NEM and VC-MMAF conjugates (conjugate)
chain: B1 chain with C16D, S39C
modifications: NEM or vcMMAF conjugate; EGFR binding FN3 domain
notes: NEM and VC-MMAF conjugates
B6: R54C: cysteine variant of P54AR4-83v2 (SEQ ID NOS: 205 and 243); NEM and VC-MMAF conjugates (conjugate)
chain: B1 chain with C16D, R55C
modifications: NEM or vcMMAF conjugate; EGFR binding FN3 domain
notes: NEM and VC-MMAF conjugates
B7: S30C: cysteine variant of P54AR4-83v2 (SEQ ID NOS: 196 and 234); NEM and VC-MMAF conjugates (conjugate)
chain: B1 chain with C16D, S31C
modifications: NEM or vcMMAF conjugate; EGFR binding FN3 domain
notes: NEM and VC-MMAF conjugates
B8: T59C: cysteine variant of P54AR4-83v2 (SEQ ID NOS: 206 and 244); NEM and VC-MMAF conjugates (conjugate)
chain: B1 chain with C16D, T60C
modifications: NEM or vcMMAF conjugate; EGFR binding FN3 domain
notes: NEM and VC-MMAF conjugates
B9: S16C: cysteine variant of P54AR4-83v2 (SEQ ID NOS: 194 and 232); NEM and VC-MMAF conjugates (conjugate)
chain: B1 chain with C16D, S17C
modifications: NEM or vcMMAF conjugate; EGFR binding FN3 domain
notes: NEM and VC-MMAF conjugates
B10: I45C: cysteine variant of P54AR4-83v2 (SEQ ID NOS: 201 and 239); NEM and VC-MMAF conjugates (conjugate)
chain: B1 chain with C16D, I46C
modifications: NEM or vcMMAF conjugate; EGFR binding FN3 domain
notes: NEM and VC-MMAF conjugates
B11: Q34C: cysteine variant of P54AR4-83v2 (SEQ ID NOS: 197 and 235); NEM and VC-MMAF conjugates (conjugate)
chain: B1 chain with C16D, Q35C
modifications: NEM or vcMMAF conjugate; EGFR binding FN3 domain
notes: NEM and VC-MMAF conjugates
B12: T48C: cysteine variant of P54AR4-83v2 (SEQ ID NOS: 203 and 241); NEM and VC-MMAF conjugates (conjugate)
chain: B1 chain with C16D, T49C
modifications: NEM or vcMMAF conjugate; EGFR binding FN3 domain
notes: NEM and VC-MMAF conjugates
B13: K40C: cysteine variant of P54AR4-83v2 (SEQ ID NOS: 199 and 237); NEM and VC-MMAF conjugates (conjugate)
chain: B1 chain with C16D, K41C
modifications: NEM or vcMMAF conjugate; EGFR binding FN3 domain
notes: NEM and VC-MMAF conjugates
B14: S20C: cysteine variant of P54AR4-83v2 (SEQ ID NOS: 195 and 233); NEM and VC-MMAF conjugates (conjugate)
chain: B1 chain with C16D, S21C
modifications: NEM or vcMMAF conjugate; EGFR binding FN3 domain
notes: NEM and VC-MMAF conjugates
B15: L32C: cysteine variant of P54AR4-83v2; NEM and VC-MMAF conjugates (conjugate)
chain: LPAPKNLVVSEVTEDSARLSWDDPWAFYESFCIQYQESEKVGEAIVLTVPGSERSYDLTGLKPGTEYTVSIYGVHNVYKDTNMRGLPLSAIFTT
modifications: left off: small tags and cut ends
notes: cysteine variant of P54AR4-83v2; NEM and VC-MMAF conjugates

Residue numbers refer to the chain shown, from its start. Numbers in names are those of the source.

For one data set, the system named is EGFR-overexpressing human tumor cell line H1573. The experiment in a line: Cytotoxicity assay in H1573 cells. The class given is cell-based. The note with it: cysteine variants conjugated to VC-MMAF, Cell TiterGlo at 70 hours, read-out: IC50. The method, then: Cell killing was assessed by measuring viability of the EGFR-overexpressing human tumor cell line H1573 following exposure to the cysteine variant-cytotoxin conjugates. Cells were plated in black-well, clear bottomed, tissue culture-treated plates (Falcon 353219) at 7000/well in 100 μL/well of phenol red free RPMI media (Gibco 11835-030) with 5% fetal bovine serum (Gibco). Cells were allowed to attach overnight at 37° C. in a humidified 5% CO2 atmosphere. Medium was aspirated from 96-well plate and cells were treated with 50 uL of fresh media and 50 uL of 2× inhibitor made up in fresh media. Cell viability was determined by an endpoint assay with Cell TiterGlo (Promega) at 70 hours. IC50 values were determined by fitting data to the equation for a sigmoidal dose response with variable slope using GraphPad Prism 5 (GraphPad Software). Table 11 reports IC50 values obtained from analysis of the CellTiter Glo data.
Conjugates consisting of ECB147 cysteine variants, 83v2-cys, or Tencon-cys linked to a cytotoxic tubulin inhibitor from the auristatin family (FIG. 2) were tested for target-dependent cytotoxicity in cancer cells. The inhibitor was linked to the cysteine-containing protein via a non-cleavable PEG4 linker or an enzyme-cleavable valine-citrulline or valine-lysine linker. Cell killing was assessed by measuring viability of the EGFR-overexpressing human tumor cell lines H1573 and A431 as well as the EGFR-negative tumor cell line MDA-MB-435 following exposure to the protein-cytotoxin conjugates using the procedure described in Example 4.
As to B1, the IC50 is 0.33 nM.

With B2, the IC50 was determined as 1 nM.

For the molecule B3, the IC50 is 1.13 nM.

Consider B4, for which the IC50 came out at 1.03 nM.

As for B5, the IC50 is 0.76 nM.

As to B6, the IC50 came out at 0.37 nM.

For B7, the half-maximal inhibitory concentration (IC50) stood at 0.78 nM.

B8: the IC50 was found to be 0.44 nM.

Take B9: the IC50 was found to be 0.75 nM.

Take B10: the IC50 stood at 0.63 nM.

In the case of B11, the half-maximal inhibitory concentration (IC50) is 0.74 nM.

In the case of B12, the IC50 stood at 0.59 nM.

As to B13, the IC50 is 0.73 nM.

Take B14: the IC50 stood at 0.36 nM.

Turning to B15, the half-inhibitory concentration (IC50) was 2.92 nM.

Test system in the next data set: not listed separately
Briefly: Analytical size exclusion chromatography (percent monomer). The class given is physicochemical. Particulars: NEM-conjugated cysteine variants; SEC, Abs280 monomer region 5.5-6 minutes vs oligomer region 4-5.3 minutes. The protocol:
Size exclusion chromatography was used to determine the aggregation state of the FN3 domains binding EGFR. Aliquots (10 μL) of each purified FN3 domain were injected onto a Superdex 75 5/150 column (GE Healthcare) at a flow rate of 0.3 mL/min in a mobile phase of PBS pH 7.4. Elution from the column was monitored by absorbance at 280 nm.
The percent monomer for each protein was determined by integrating the Abs280 signal and comparing the peak in the monomer region (5.5-6 minutes) to the peaks in the oligomer region (4-5.3 minutes).
As to B1, the Percent monomer turned out to be 97%.

B2 registered a Percent monomer of 100%.

As to B3, the Percent monomer was 98%.

For the molecule B4, the Percent monomer turned out to be 100%.

With B5, the Percent monomer is 93%.

B6: the Percent monomer is reported as 96%.

Take B7: the Percent monomer came to 94%.

As for B8, the Percent monomer came to 100%.

Take B9: the Percent monomer is 75%.

Molecule B10 yielded a Percent monomer of 97%.

Take B11: the Percent monomer is on record as 97%.

For the molecule B12, the Percent monomer came out at 90%.

In turn, B13 showed a Percent monomer of 97%.

In turn, B14 displayed a Percent monomer of 94%.

For B15, the Percent monomer came out at 100%.

Test system in a further data set: not listed separately
The experiment in a line: Thermal stability of cysteine-NEM conjugates by DSC. Particulars: DSC 25-100 °C, 1 °C per minute. The class given is physicochemical. The protocol:
The thermal stability of cysteine-NEM conjugates was assessed by differential scanning calorimetry (DSC). The only the conjugates tested were those determined to express at high levels, conjugate efficiently, and retain EGFR binding. Additionally, cysteine variants within the BC and FG loops were excluded. Stability data was generated by heating a 400 μL aliquot of the variant from 25° C. to 100° C. at a scan rate of 1° C. per minute in a VP-DSC instrument (MicroCal). A second identical scan was completed on the sample in order to assess the reversibility of thermal folding/unfolding. Data was fitted to a 2-state unfolding model in order to calculate the melting temperature (Table 10).
For B1, the “First Scan Tm” value was 73 °C.

As to B2, the “First Scan Tm” value came to 66 °C.

For the molecule B3, the “First Scan Tm” value was 71 °C.

For the molecule B4, the “First Scan Tm” value stood at 67 °C.

With B5, the “First Scan Tm” value came to 65 °C.

Consider B6, for which the “First Scan Tm” value was 65 °C.

As for B7, the “First Scan Tm” value came to 71 °C.

Consider B8, for which the “First Scan Tm” value turned out to be 67 °C.

Regarding B9, the “First Scan Tm” value is 68 °C.

In the case of B10, the “First Scan Tm” value came to 69 °C.

Take B11: the “First Scan Tm” value was 75 °C.

On to B12, for which the “First Scan Tm” value stood at 72 °C.

Consider B13, for which the “First Scan Tm” value is 70 °C.

Consider B14, for which the “First Scan Tm” value was 70 °C.

Take B15: the “First Scan Tm” value was 71 °C.

Still in this data set, the particulars now being: second identical scan.
On to B1, for which the “Second Scan Tm” value is 73 °C.

Turning to B2, the “Second Scan Tm” value came to 66 °C.

For B3, the “Second Scan Tm” value was found to be 71 °C.

With B4, the “Second Scan Tm” value was 67 °C.

For the molecule B5, the “Second Scan Tm” value amounted to 65 °C.

Turning to B6, the “Second Scan Tm” value was 65 °C.

Turning to B7, the “Second Scan Tm” value is 71 °C.

With B8, the “Second Scan Tm” value amounted to 67 °C.

For the molecule B9, the “Second Scan Tm” value was 68 °C.

For the molecule B10, the “Second Scan Tm” value is 68 °C.

As to B11, the “Second Scan Tm” value amounted to 74 °C.

For B12, the “Second Scan Tm” value is 72 °C.

For the molecule B13, the “Second Scan Tm” value worked out at 70 °C.

Take B14: the “Second Scan Tm” value was 70 °C.

Consider B15, for which the “Second Scan Tm” value amounted to 70 °C.

The values above are taken from patent US11702475B2, “Cysteine engineered fibronectin type III domain binding molecules” (Janssen Biotech, Inc., priority 2013, dated 2023).
